# Measured values reported in publication PMC8596989.
# Columns and labels:
# [1] = molecular target: Encapsulin from Mycobacterium smegmatis with Streptavidin-tag (^StrepEncSM) (Mycobacterium smegmatis) (UniProt A0R4H0); assay: FRET or BRET
# [2] = molecular target: Encapsulin from Mycobacterium smegmatis with Streptavidin-tag (^StrepEncSM) (Mycobacterium smegmatis) (UniProt A0R4H0); assay: in-gel fluorescence against a standard curve
substance,measurement,setting,value
HaloTag construct carrying an encapsulin localization sequence (HaloTag-ELS),fluorophore binding sites per vesicle (fluorophore binding sites per vesicle),[1],> 3
same,labeled cargo proteins per capsid (labeled cargo proteins per capsid),[2],6.6
